Article PMC11005340

Key:
[1] = target: HIV-1AD8 Env N332L (HIV-1 (strain AD8))
[2] = target: HIV-1AD8 Env N332Y (HIV-1 (strain AD8))
[3] = target: HIV-1AD8 Env N332E (HIV-1 (strain AD8))

Measured: neutralisation of pseudovirus infection of Cf2-Th/CD4+CCR5+ cells, IC50 (one of the three changes with the highest resistance to PGT121)

PGT121 (antibody)
< 1 µg/mL: all assays above
